B1: 415 (protein)
chain: MAQGKVALEEHFAIPETLNDAAGFVPGDYWKELQHRLLDIQDTRLKLMDKHEIETMILSLAAPAVQAIPDRRKAIEIARRANDFLAEEVAKRPDRFLAFAALPMQDPDAATEELQRCVRDLGFVGALVNGFSQEGDGQTPLYYDLPQYRPFWGEVEKLDVPFYLHPRNPLPQDSRIYDGHPWLLGPTWAFAQETAVHALRLMASGLFDEHPGLNIILGHMGEGLPYMMYRIDHRIGWVKAPPDYPAKRRFMDYFLENFHITTSGNFRTQTLIDAILEIGADRILFSTDWPFENIDHAAAWFNATSIAEADRLKIGRTNARRLFKLDLR
modifications: Dicamba decarboxylase variant
B2: 448 (protein)
chain: MAQGKVALEEHFAIPETLQDAAGFVPGDYWKELQHRLLDIQDQRLRLMDKHEIGTMILSLAAPAVQAIPDRRKAIEIARRANDFLAEEVAKRPDRFLAFAALPMQDVDAASEELQRCVNDLGFVGAMVNGFSQEGDGQTPLYYDLPQYRPFWGEVEKLDVPFYLHPRNPLPQDSRIYDGHPWLLGPTWAFAQETAVHALRLMASGLFDEHPRLNIILGHMGEGLPYMMYRIDHRIGWVKAPPDYPAKRRFMDYFLENFHITTSGNFRTQTLIDAILEIGADRILFSTDWPFENIDHAAAWFNATSIAEADRVKIGRTNARRLFKLDLR
modifications: Dicamba decarboxylase variant
B3: 411 (protein)
chain: MAQGKVALEEHFAIPETLQDAAGFVPGDYWKELQHRLLDIQDTRLKLMDKHEIETMILSLAAPAVQAIPDRRKAIEIARRANDFLAEEVAKRPDRFLAFAALPLQDPDAATEELQRCVNDLGFVGAMVNGFSQEGDGQTPLYYDLPQYRPFWGEVEKLDVPFYLHPRNPLPQDSRIYDGHPWLLGPTWAFAQETAVHALRLMASGLFDEHPRLNIILGHMGEGLPYMMYRIDHRIAWVKAPPDYAAKRRFMDYFNENFHITTSGNFRTQTLIDAILEIGADRILFSTDWPFENIDHAADWFNATSIAEADRVKIGRTNARRLFKLDGR
modifications: Dicamba decarboxylase variant
B4: 451 (protein)
chain: MAQGKVALEEHFAIPETLQDAAGFVPGDYWKELQHRLLDIQDTRLKLMDKHEIETMILSLAAPGVQAIPDRRKAIEIARRANDFLAEEVAKRPDRFLAFAALPLQDPDAATEELQRCVNDLGFVGAMVNGFSVEGDGQTPLYYDLPQYRPFWGEVEKLDVPFYLHPRNPLPQDSRIYDGHPWLLGPTWAFAQETAVHALRLMASGLFDEHPGLQIILGHMGEGLPYMMYRIDHRIAWVKAPPDYPAKRRFMDYFLENFHITTSGNFRTQTLIDAILEIGADRILFSTDWPFENIDHAAAWFAETSIAEADRLKIGRTNARRLFKLDGR
modifications: Dicamba decarboxylase variant
B5: 416 (protein)
chain: MAQGKVALEEHFAIPETLQDAAGFVPGDYWKELQHRLLDIQDTRLKLMDKHEIETMILSLAAPAVQAIPDRRKAIEIARRANDFLAEEVAKRPDRFLAFAALPLQDPDAATEELQRCVNDLGFVGALVNGFSQEGDGQTPLYYDLPQYRPFWGEVEKLDVPFYLHPRNPLPQDSRIYDGHPWLLGPTWAFAQETAVHALRLMASGLFDEHPRLNIILGHMGEGLPYMMYRIDHRIAWVKAPPDYPAKRRFMDYFNENFHITTSGNFRTQTLIDAILEIGADRILFSTDWPFENIDHAADWFNATSIAEADRVKIGRTNARRLFKLDGR
modifications: Dicamba decarboxylase variant
B6: 413 (protein)
chain: MAQGKVALEEHFAIPETLQDAAGFVPGDYWKELQHRLLDIQDTRLRLMDKHEIETMILSLAAPAVQAIPDRRKAIEIARRANDFLAEEVAKRPDRFLAFAALPLQDPDAATEELQRCVRDLGFVGAMVNGFSQEGDGQTPLYYDLPQYRPFWGEVEKLDVPFYLHPRNPLPQDSRIYDGHPWLLGPTWAFAQETAVHALRLMASGLFDEHPRLNIILGHMGEGLPYMMYRIDHRIAWVKAPPDYAAKRRFMDYFNENFHITTSGNFRTQTLIDAILEIGADRILFSTDWPFENIDHAADWFNATSIAEADRVKIGRTNARRLFKLDLR
modifications: Dicamba decarboxylase variant
B7: 450 (protein)
chain: MAQGKVALEEHFAIPETLQDAADFVPGDYWKELQHRLLDIQDQRLRLMDKHEIGTMILSLAAPAVQAIPDRRKAIEIARRANDFLAEEVAKRPDRFLAFAALPMQDVDAATEELQRCVNDLGFVGALVNGFSQEGDGQTPLYYDLPQYRPFWGEVEKLDVPFYLHPRNPLPQDSRIYDGHPWLLGPTWAFAQETAVHALRLMASGLFDEHPGLNIILGHLGEGLPYMMYRIDHRIAWVKAPPDYPAKRRFMDYFNENFHITTSGNFRTQTLIDAILEIGADRILFSTDWPFENIDHAADWFNATSIAEADRVKIGRTNARRLFKLDGR
modifications: Dicamba decarboxylase variant
B8: 456 (protein)
chain: MAQGKVALEEHFAIPETLQDAAGFVPGDYWKELQHRLLDIQDTRLKLMDKHEIGTMILSLAAPAVQAIPDRRKAIEIARRANDFLAEEVAKRPDRFLAFAALPLQDPDAATEELQRCVNDLGFVGAMVNGFSQEGDGQTPLYYDLPQYRPFWGEVEKLDVPFYLHPRNPLPQDSRIYDGHPWLLGPTWAFAQETAVHALRLMASGLFDEHPRLNIILGHMGEGLPYMMYRIDHRIAWVKAPPDYPAKRRFMDYFLENFHITTSGNFRTQTLIDAILEIGADRILFSTDWPFENIDHAADWFNATSIAEADRVKIGRTNARRLFKLDGR
modifications: Dicamba decarboxylase variant
B9: 453 (protein)
chain: MAQGKVALEEHFAIPETLQDAAGFVPGDYWKELQHRLLDIQDTRLKLMDKHEIGTMILSLAAPAVQAIPDRVKAIEIARRANDFLAEEVAKRPDRFLAFAALPLQDPDAATEELQRCVNDLGFVGAMVNGFSQEGDGQTPLYYDLPQYRPFWGEVEKLDVPFYLHPRNPLPQDSRIYDGHPWLLGPTWAFAQETAVHALRLMASGLFDEHPRLNIILGHMGEGLPYMMYRIDHRIAWVKAPPDYPAKRRFMDYFLENFHITTSGNFRTQTLIDAILEIGADRILFSTDWPFENIDHAADWFNATSIAEADRVKIGRTNARRLFKLDGR
modifications: Dicamba decarboxylase variant
B10: 414 (protein)
chain: MAQGKVALEEHFAIPETLQDAAGFVPGDYWKELQHRLLDIQDTRLKLMDKHEIETMILSLAAPAVQAIPDRRKATEIARRANDFLAEEVAKRPDRFLAFAALPLQDPDAATEELQRCVNDLGFVGALVNGFSQEGDGQTPLYYDLPQYRPFWGEVEKLDVPFYLHPRNPLPQDSRIYDGHPWLLGPTWAFAQETAVHALRLMASGLFDEHPRLNIILGHLGEGLPYMMYRIDHRIAWVKAPPDYAAKRRFMDYFNENFHITTSGNFRTQTLIDAILEIGADRILFSTDWPFENIDHAADWFNATSIAEADRVKIGRTNARRLFKLDLR
modifications: Dicamba decarboxylase variant
B11: 452 (protein)
chain: MAQGKVALEEHFAIPETLQDAAGFVPGDYWKELQHRLLDIQDTRLKLMDKHEIETMILSLAAPAVQAIPDRRKAIEIARRANDFLAEEVAKRPDRFLAFAALPMQDPDAATEELQRCVNDLGFVGAMVNGFSVEGDGQTPLYYDLPQYRPFWGEVEKLDVPFYLHPRNPLPQDSRIYDGHPWLLGPTWAFAQETAVHALRLMASGLFDEHPGLQIILGHMGEGLPYMMYRIDHRIGWVQAPPDYPAKRRFMDYFLENFHITTSGNFRTQTLIDAILEIGADRILFSTDWPFENIDHAADWFNATSIAEADRVKIGRTNARRLFKLDGR
modifications: Dicamba decarboxylase variant
B12: 449 (protein)
chain: MGXGKVALEEHFAIPETLQDAAGFVPSDYWKELQHRLLDIQDTRLKLMDKHEIETMILSLAAPAVQAIPDRRKAIEIARRANDFLAEEVAKRPDRFLAFAALPLQDPDAATEELQRCVNDLGFVGALVNGFSVEGDGQTPLYYDLPQYRPFWGEVEKLDVPFYLHPRNPLPQDSRIYDGHPWLLGPTWAFAQETAVHALRLMASGLFDEHPRLNIILGHMGEGLPYMMYRIDHRIGWVKAPPDYPAKRRFMDYFLENFHITTSGNFRTQTLIDAILEIGADRILFSTDWPFENIDHAAAWFNATSIAEADRLKIGRTNARRLFKLDGR
modifications: X: residue not identified in the source; ends and bridges not checked
B13: 455 (protein)
chain: MAQGKVALEEHFAIPETLNDAAGFVPGDYWKELQHRLLDIQDTRLKLMDKHEIETMILSLAAPAVQAIPDRRKAIEIARRANDFLAEEVAKRPDRFLAFAALPLQDPDAATEELQRCVNDLGFVGAMVNGFSQEGDGQTPLYYDLPQYRPFWGEVEKLDVPFYLHPRNPLPQDSRIYDGHPWLLGPTWAFAQETAVHALRLMASGLFDEHPRLNIILGHMGEGLPYMMYRIDHRIAWVKAPPDYPAKRRFMDYFLENFHITTSGNFRTQTLIDAILEIGADRILFSTDWPFENIDHAADWFNATSIAEADRVKIGRTNARRLFKLDGR
modifications: Dicamba decarboxylase variant
B14: 412 (protein)
chain: MAQGKVALEEHFAIPETLQDAAGFVPGDYWKELQHRLLDIQDTRLKLMDKHEIETMILSLAAPAVQAIPDRRKAIEIARRANDFLAEEVAKRPDRFLAFAALPLQDPDAATEELQRCVRDLGFVGAMVNGFSVEGDGQTPLYYDLPQYRPFWKEVEKLDVPFYLHPRNPLPQDSRIYDGHPWLLGPTWAFAQETAVHALRLMASGLFDEHPRLNIILGHMGEGLPYMMYRIDHRIAWVKAPPDYAAKRRFMDYFNENFHITTSGNFRTQTLIDAILEIGADRILFSTDWPFENIDHAAAWFNATSIAEADRVKIGRTNARRLFKLDLR
modifications: Dicamba decarboxylase variant
B15: 454 (protein)
chain: MAQGKVALEEHFAIPETLQDAAGFVPGDYWKELQHRLLDIQDTRLKLMDKHEIETMILSLAAPAVQAIPDRRKAVEIARRANDFLAEEVAKRPDRFLAFAALPLQDPDAATEELQRCVNDLGFVGAMVNGFSQEGDGQTPLYYDLPQYRPFWGEVEKLDVPFYLHPRNPLPQDSRIYDGHPWLLGPTWAFAQETAVHALRLMASGLFDEHPRLNIILGHMGEGLPYMMYRIDHRIAWVKAPPDYPAKRRFMDYFLENFHITTSGNFRTQTLIDAILEIGADRILFSTDWPFENIDHAADWFNATSIAEADRVKIGRTNARRLFKLDGR
modifications: Dicamba decarboxylase variant

Assay: Shuffled variant libraries: 14CO2 capturing assay in 384-well format
Conditions: decarboxylation activity (carbon dioxide released) compared with unmutated backbone protein SEQ ID NO 380 (DDEC0301)
With B1 the “Fold Activity” value was 1.1. In the case of B2, the “Fold Activity” value is reported as 1.8. For B3, the “Fold Activity” value was 1.6. In the case of B4, the “Fold Activity” value is reported as 1.4. In the case of B5, the “Fold Activity” value is reported as 1.1. In the case of B6, the “Fold Activity” value is reported as 1.4. In the case of B7, the “Fold Activity” value is reported as 0.9. For B8, the “Fold Activity” value was 1.7. With B9 the “Fold Activity” value was 1.7. With B10 the “Fold Activity” value was 1.1. With B11 the “Fold Activity” value was 2.0. In the case of B12, the “Fold Activity” value is reported as 1.3. With B13 the “Fold Activity” value was 2.1. For B14, the “Fold Activity” value was 1.2. In the case of B15, the “Fold Activity” value is reported as 1.8.
